The experiment has as its target T1, His-tagged human NOTCH3 intracellular domain (aa 1665-2321) (human, UniProt Q9UM47 1665-2321).
T1 construct: human NOTCH3 intracellular domain, aa 1665-2321; also called His-NICD3; source: E. coli, purified (GeneCreate Biological Engineering)
T1 sequence (looked up): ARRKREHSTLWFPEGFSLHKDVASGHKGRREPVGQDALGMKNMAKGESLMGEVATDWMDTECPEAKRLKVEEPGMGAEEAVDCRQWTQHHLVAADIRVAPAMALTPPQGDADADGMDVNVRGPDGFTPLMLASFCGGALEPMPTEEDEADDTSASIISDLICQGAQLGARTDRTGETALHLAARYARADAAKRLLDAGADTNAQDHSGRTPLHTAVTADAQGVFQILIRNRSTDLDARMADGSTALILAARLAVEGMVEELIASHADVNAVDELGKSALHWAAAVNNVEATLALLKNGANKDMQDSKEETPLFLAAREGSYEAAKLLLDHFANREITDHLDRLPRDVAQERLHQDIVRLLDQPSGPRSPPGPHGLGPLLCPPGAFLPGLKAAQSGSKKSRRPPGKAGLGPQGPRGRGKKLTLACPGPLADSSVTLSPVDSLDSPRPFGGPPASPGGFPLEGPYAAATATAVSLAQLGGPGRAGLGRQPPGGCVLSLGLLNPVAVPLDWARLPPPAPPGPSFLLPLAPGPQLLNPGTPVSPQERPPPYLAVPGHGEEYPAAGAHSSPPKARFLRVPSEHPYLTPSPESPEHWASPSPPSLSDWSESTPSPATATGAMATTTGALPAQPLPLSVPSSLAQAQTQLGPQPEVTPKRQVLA
Description: pull-down; GST pull-down: purified GST-tagged SMARCA4 segments mixed with His-NICD3 on ice for 3 h, beads, five washes, elution with 15 mM reduced glutathione; blots with anti-GST and anti-His; GST as negative control. As to conditions: both partners purified.

B1: GST-tagged SMARCA4 BRK domain (aa 612-656) (domain or fragment, human, UniProt P51532 612-656, looked up)
chain: MSDLPVKVIHVESGKILTGTDAPKAGQLEAWLEMNPGYEVAPRSD
notes: also called SMART BRK domain; source: E. coli, purified (GeneCreate Biological Engineering)
Turning to B1, the binding result is recorded as “binds”.

B2: GST-tagged SMARCA4 BROMO domain (aa 1455-1566) (domain or fragment, human, UniProt P51532 1455-1566, looked up)
chain: PPNLTKKMKKIVDAVIKYKDSSSGRQLSEVFIQLPSRKELPEYYELIRKPVDFKKIKERIRNHKYRSLNDLEKDVMLLCQNAQTFNLEGSLIYEDSIVLQSVFTSVRQKIEK
notes: also called SMART BROMO domain; source: E. coli, purified (GeneCreate Biological Engineering)
Regarding B2, the binding result is listed as “binds”.

These data come from publication PMC9533685, “NICD3 regulates the expression of MUC5AC and MUC2 by recruiting SMARCA4 and is involved in the differentiation of mucinous colorectal adenocarcinoma” (Molecular Oncology, 2022).
